Data published in patent US20160193299A1, “MODIFIED NUCLEOSIDE, NUCLEOTIDE, AND NUCLEIC ACID COMPOSITIONS” (Moderna Therapeutics, Inc., priority 2011, published 2016).

Tests used:
neutrophil count = experiment: Example 41 intravenous administration of lipoplexed G-CSF mRNA, neutrophil count; assay type: in vivo; conditions: mice IV, 10% lipoplex, 50 ug at days 0, 2, 4; day 5
Experimental: Neutrophils were measured at days 1, 5 and 8. Controls included non-specific mammalian RNA or the formulation buffer alone (F.Buffer). The mice were bled at days 1, 5 and 8 to determine the effect of mRNA-encoded human G-CSF to increase neutrophil count. The dosing regimen is shown in Table 64 as are the resulting neutrophil counts (thousands/uL; K/uL).

[1] = Stability of modified RNA on storage (gel electrophoresis); assay type: physicochemical
Experimental: Stability experiments were conducted to obtain a better understanding of storage conditions to retain the integrity of modified RNA. […] After the mRNA had been stored for 0 hours, 2 hours, 6 hours, 24 hours, 48 hours, 5 days and 14 days, the mRNA was analyzed by gel electrophoresis using a Bio-Rad EXPERION′ system. The modified, unmodified and lipoplexed G-CSF mRNA was also stored in RNASTABLE® (Biomatrica, Inc. San Diego, Calif.) at 40° C. or water at −80° C. or 40° C. for 35 days before being analyzed by gel electrophoresis.
mRNA samples stored at 4° C., 25° C. and 37° C. were stored in 1× TE buffer or the formulation buffer (150 mM sodium chloride, 2 mM calcium chloride, 2 mM phosphate, 0.5 mM EDTA at a pH of 6.5). The mRNA stored at 4° C. was stable to at least 60 days in both the TE and formulation buffer. At 25° C. the mRNA in formulation buffer was stable out to 14 days and the TE buffer was stable out to at least 6 days. Storage of mRNA in the formulation buffer at 37° C. was stable to 6 days compared to the TE buffer which was stable only until 4 days.

Female BALB/C mice = experiment: In vivo detection of innate immune response: human G-CSF and mouse IFN-alpha in serum after I.M. injection; conditions: for IFN-alpha expression: mouse IFN-alpha in serum, 200 ug/mouse mRNA (R848 75 ug); for IFN-alpha expression / G-CSF protein: I.M., 8 hours after dosing; for PC Ratio: Protein:Cytokine ratio, G-CSF / IFN-alpha in mouse serum; for G-CSF protein: human G-CSF in mouse serum, 200 ug/mouse mRNA (R848 75 ug) in 5% sucrose
Experimental: Blood is collected at 8 hours after dosing and using ELISA the protein levels of G-CSF and interferon-alpha (IFN-alpha) is determined by ELISA and are shown in Table 81.

HEK293 = experiment: Example 46B percent-modified G-CSF mRNA transfected in HEK293, secreted G-CSF ELISA; assay type: cell-based, human; conditions: HEK293, 250 ng mRNA with RNAiMAX, supernatant after 16 hours
Experimental: Human embryonic kidney epithelial (HEK293) cells were seeded on 96-well plates at a density of 30,000 cells per well in 100 ul cell culture medium. 250 ng of modified G-CSF mRNA (SEQ ID NO: 6; polyA tail of approximately 160 nucleotides not shown in sequence; 5′cap, Cap1) formulated with RNAiMAX™ (Invitrogen, Carlsbad, Calif.) was added to a well. The G-CSF was completely modified with 5mC and pseudoU (100% modification), not modified with 5mC and pseudoU (0% modification) or was partially modified with 5mC and pseudoU so the mRNA would contain 75% modification, 50% modification or 25% modification. Control samples (AK 5/2, mCherry (SEQ ID NO: 7; polyA tail of approximately 160 nucleotides not shown in sequence; 5′cap, Cap1; fully modified 5mC and pseudoU) and untreated) were also analyzed. […] The supernatants were harvested after 16 hours and the secreted G-CSF protein was analyzed by ELISA.

[2] = system: peripheral blood mononuclear cells (PBMC); experiment: Example 46A percent-modified G-CSF mRNA transfected in PBMC, G-CSF ELISA; assay type: cell-based, human
Experimental: (§1) 960 ng of G-CSF mRNA modified with 5-methylcytosine (5mC) and pseudouridine (pseudoU) or unmodified G-CSF mRNA was transfected with 0.8 uL of Lipofectamine 2000 into peripheral blood mononuclear cells (PBMC) from three normal blood donors (D1, D2, D3). […] The supernatant was harvested and run by ELISA 22 hours after transfection to determine the protein expression. The expression of IFN-alpha and TNF-alpha may be a secondary effect from the transfection of the G-CSF mRNA.

[3] = system: peripheral blood mononuclear cells (PBMC); experiment: Modified RNA transfected in PBMC: IFN-alpha and TNF-alpha at 6 and 18 hours (ELISA); assay type: cell-based, human
Experimental: (§2) 500 ng of G-CSF mRNA modified with 5-methylcytosine (5mC) and pseudouridine (pseudoU) or unmodified G-CSF mRNA was transfected with 0.4 uL of Lipofectamine 2000 into peripheral blood mononuclear cells (PBMC) from three normal blood donors (D1, D2, and D3). […] The supernatant was harvested 6 hours and 18 hours after transfection and run by ELISA to determine the protein expression. The expression of G-CSF, IFN-alpha, and TNF-alpha for Donor 1 is shown in Table 86, Donor 2 is shown in Table 87 and Donor 3 is shown in Table 88.

[4] = system: peripheral blood mononuclear cells (PBMC); experiment: IFN-alpha and TNF-alpha expression in transfected PBMC (ELISA) and PC ratio; assay type: cell-based, human; conditions: for IFN-alpha expression / TNF-alpha Expression: ELISA 22 hours after transfection
Experimental: The supernatant was harvested and run by ELISA 22 hours after transfection to determine the protein expression.

[5] = system: peripheral blood mononuclear cells (PBMC); experiment: Modified RNA transfected in PBMC: G-CSF expression at 6 and 18 hours (ELISA); assay type: cell-based, human
Experimental: as §2

[6] = system: peripheral blood mononuclear cells (PBMC); experiment: G-CSF expression in PBMC transfected with partially modified G-CSF mRNA (ELISA); assay type: cell-based, human; conditions: for G-CSF Expression: ELISA 22 hours after transfection
Experimental: as §1, with “480” for “960”, “0.4” for “0.8”, “D2, and” for “D2,”

[7] = system: Human primary foreskin fibroblasts (BJ fibroblasts); experiment: Innate immune response in BJ fibroblasts, repeat transfection: cytokine response; assay type: cell-based
mice = experiment: In vivo cytokine expression study (serum IFN-alpha); conditions: mouse serum; I.M. 200 ug mRNA; after 8 hours
Experimental: After 8 hours serum was collected from the mice and analyzed for interferon-alpha (IFN-alpha) expression.

[8] = system: female Sprague Dawley rats; experiment: In vivo delivery of modified RNA: G-CSF protein in rat serum (I.M.); conditions: I.M. 400 ug in 100 ul, 5% sucrose, 8 hours after injection
Experimental: Protein production of modified mRNA was evaluated by delivering modified G-CSF mRNA or modified Factor IX mRNA to female Sprague Dawley rats (n=6). […] Blood was collected 8 hours after injection and the G-CSF protein level in serum was measured by ELISA.

[9] = PBMC, from averages of Tables 83 and 84
[10] = 250 ng transfected daily for 5 days, 6 hours

B1: Unmodified G-CSF mRNA: human G-CSF mRNA SEQ ID NO: 6 having no modifications (natural NTPs) (nucleic acid, listed as Homo sapiens)
chain: GGGAAAUAAGAGAGAAAAGAAGAGUAAGAAGAAAUAUAAGAGCCACCAUGGCCGGUCCCGCGACCCAAAGCCCCAUGAAACUUAUGGCCCUGCAGUUGCUGCUUUGGCACUCGGCCCUCUGGACAGUCCAAGAAGCGACUCCUCUCGGACCUGCCUCAUCGUUGCCGCAGUCAUUCCUUUUGAAGUGUCUGGAGCAGGUGCGAAAGAUUCAGGGCGAUGGAGCCGCACUCCAAGAGAAGCUCUGCGCGACAUACAAACUUUGCCAUCCCGAGGAGCUCGUACUGCUCGGGCACAGCUUGGGGAUUCCCUGGGCUCCUCUCUCGUCCUGUCCGUCGCAGGCUUUGCAGUUGGCAGGGUGCCUUUCCCAGCUCCACUCCGGUUUGUUCUUGUAUCAGGGACUGCUGCAAGCCCUUGAGGGAAUCUCGCCAGAAUUGGGCCCGACGCUGGACACGUUGCAGCUCGACGUGGCGGAUUUCGCAACAACCAUCUGGCAGCAGAUGGAGGAACUGGGGAUGGCACCCGCGCUGCAGCCCACGCAGGGGGCAAUGCCGGCCUUUGCGUCCGCGUUUCAGCGCAGGGCGGGUGGAGUCCUCGUAGCGAGCCACCUUCAAUCAUUUUUGGAAGUCUCGUACCGGGUGCUGAGACAUCUUGCGCAGCCGUGAAGCGCUGCCUUCUGCGGGGCUUGCCUUCUGGCCAUGCCCUUCUUCUCUCCCUUGCACCUGUACCUCUUGGUCUUUGAAUAAAGCCUGAGUAGGAAG
Neutrophil count
  increase in neutrophil count above control: no pharmacologic effect
[1]
  freeze/thaw cycles tolerated: 12 cycles
Female BALB/C mice
  IFN-alpha expression: robust cytokine response

B2: 100% modification: G-CSF mRNA (SEQ ID NO: 6, Cap1) completely modified with 5mC and pseudoU (nucleic acid, listed as Homo sapiens)
chain: B1 chain
modifications: Cap1; fully 5-methylcytidine and pseudouridine modified
HEK293
  G-CSF Expression: 118.4 ng/mL
[2]; PBMC donor D1, 960 ng mRNA
  G-CSF Expression: 270.3 pg/mL
[2]; PBMC donor D2, 960 ng mRNA
  G-CSF Expression: 151.6 pg/mL
[2]; PBMC donor D3, 960 ng mRNA
  G-CSF Expression: 162.2 pg/mL
[3]; PBMC Donor 1, 6 hours
  IFN-alpha: 1 pg/mL
  TNF-alpha: 0 pg/mL
[3]; PBMC Donor 1, 18 hours
  IFN-alpha: 13 pg/mL
  TNF-alpha: 0 pg/mL
[3]; PBMC Donor 2, 6 hours
  IFN-alpha: 0 pg/mL
  TNF-alpha: 0 pg/mL
[3]; PBMC Donor 2, 18 hours
  IFN-alpha: 7 pg/mL
  TNF-alpha: 11 pg/mL
[3]; PBMC Donor 3, 6 hours
  IFN-alpha: 7 pg/mL
  TNF-alpha: 11 pg/mL
[3]; PBMC Donor 3, 18 hours
  IFN-alpha: 658 pg/mL
  TNF-alpha: 11 pg/mL
[4]; PBMC
  ratio of protein/cytokine production versus natural G-CSF mRNA, IFN-alpha: 100 fold
  ratio of protein/cytokine production versus natural G-CSF mRNA, TNF-alpha: 27 fold
[4]; PBMC donor D1
  IFN-alpha expression: 336.5 pg/mL
  TNF-alpha Expression: 115.0 pg/mL
[4]; PBMC donor D2
  IFN-alpha expression: 78.0 pg/mL
  TNF-alpha Expression: 15.0 pg/mL
[4]; PBMC donor D3
  IFN-alpha expression: 46.4 pg/mL
  TNF-alpha Expression: 11.1 pg/mL
[4]; [9]
  G-CSF/IFN-alpha (PC ratio): 16
  G-CSF/TNF-alpha (PC ratio): 52
[4]; average of PBMC donors D1-D3
  Average IFN-a: 153 pg/mL
  Average TNF-a: 47 pg/mL
[5]; PBMC Donor 1, 500 ng mRNA, 6 hours
  G-CSF: 1815 pg/mL
[5]; PBMC Donor 1, 18 hours
  G-CSF: 2224 pg/mL
[5]; PBMC Donor 2, 6 hours
  G-CSF: 2184 pg/mL
[5]; PBMC Donor 2, 18 hours
  G-CSF: 2432 pg/mL
[5]; PBMC Donor 3, 6 hours
  G-CSF: 6086 pg/mL
[5]; PBMC Donor 3, 18 hours
  G-CSF: 7549 pg/mL
[6]; PBMC donor D1, 480 ng mRNA + Lipofectamine 2000
  G-CSF Expression: 1968.9 pg/mL
[6]; PBMC donor D2, 480 ng mRNA
  G-CSF Expression: 2595.6 pg/mL
[6]; PBMC donor D3, 480 ng mRNA
  G-CSF Expression: 2835.7 pg/mL
[6]; average of PBMC donors D1-D3
  Average G-CSF: 2466 pg/mL

B3: G-CSF Gen 1: G-CSF mRNA SEQ ID NO: 6, Cap1, fully modified with 5-methylcytosine and pseudouridine (nucleic acid, listed as Homo sapiens)
chain: B1 chain
modifications: Cap1, 5mC/pseudouridine modified
[7]; [10]
  IFN-beta: 0 pg/mL
[7]; daily transfection, 6 hours
  IL-6: 3396 pg/mL
[7]; daily transfection, Day 1
  IFN-beta: 38 pg/mL
  IL-6: 3870 pg/mL
[7]; daily transfection, Day 2
  IFN-beta: 1125 pg/mL
  IL-6: 16341 pg/mL
[7]; daily transfection, Day 3
  IFN-beta: 100 pg/mL
  IL-6: 25983 pg/mL
[7]; daily transfection, Day 4
  IFN-beta: 75 pg/mL
  IL-6: 18922 pg/mL
[7]; daily transfection, Day 5
  IFN-beta: 213 pg/mL
  IL-6: 15928 pg/mL
mice
  IFN-alpha: 8.867 pg/mL
[8]
  G-CSF protein: 19.37 pg/mL
Female BALB/C mice
  PC Ratio: 40
  G-CSF protein: 356.5 pg/mL
Female BALB/C mice; listed as 5mc/pU modified G-CSF mRNA
  IFN-alpha expression: low but detectable cytokine response
Female BALB/C mice; listed as GCSF mRNA 5mc/pU
  IFN-alpha expression: 8.87 pg/mL

B4: G-CSF Gen 2: G-CSF mRNA SEQ ID NO: 6, Cap1, fully modified with 5-methylcytosine and N1-methylpseudouridine (nucleic acid, listed as Homo sapiens)
chain: B1 chain
modifications: Cap1, 5mC/N1-methylpseudouridine modified
[7]; [10]
  IFN-beta: 0 pg/mL
[7]; daily transfection, 6 hours
  IL-6: 3337 pg/mL
[7]; daily transfection, Day 1
  IFN-beta: 0 pg/mL
  IL-6: 3733 pg/mL
[7]; daily transfection, Day 2
  IFN-beta: 150 pg/mL
  IL-6: 974 pg/mL
[7]; daily transfection, Day 3
  IFN-beta: 213 pg/mL
  IL-6: 4972 pg/mL
[7]; daily transfection, Day 4
  IFN-beta: 1400 pg/mL
  IL-6: 4122 pg/mL
[7]; daily transfection, Day 5
  IFN-beta: 350 pg/mL
  IL-6: 2906 pg/mL
mice
  IFN-alpha: 0 pg/mL
[8]
  G-CSF protein: 64.72 pg/mL
Female BALB/C mice
  PC Ratio: 748
  G-CSF protein: 748.1 pg/mL
Female BALB/C mice; listed as 5mc/N1pU modified mRNA
  IFN-alpha expression: no detectable IFN-alpha
Female BALB/C mice; listed as GCSF mRNA5mc/N1pU
  IFN-alpha expression: 0 pg/mL
